# Test results as given in PMC9482650, “Quantitative fragmentomics allow affinity mapping of interactomes” (Nature Communications, 2022).
# T1: ARHGAP21, Q5T5U3
# T1 sequence (Q5T5U3 45-169, limits assumed, looked up): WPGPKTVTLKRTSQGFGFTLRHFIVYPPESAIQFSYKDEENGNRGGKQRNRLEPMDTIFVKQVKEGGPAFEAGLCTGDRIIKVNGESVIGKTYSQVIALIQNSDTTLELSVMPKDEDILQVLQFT
# T2: DFNB31_1, Q9P202
# T2 sequence (Q9P202 135-233, limits assumed, looked up): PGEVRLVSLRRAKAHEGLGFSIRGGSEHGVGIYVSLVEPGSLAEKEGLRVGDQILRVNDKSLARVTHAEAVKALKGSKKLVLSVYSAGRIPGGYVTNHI
# T3: DLG3_1, Q92796
# T3 sequence (Q92796 125-227, limits assumed, looked up): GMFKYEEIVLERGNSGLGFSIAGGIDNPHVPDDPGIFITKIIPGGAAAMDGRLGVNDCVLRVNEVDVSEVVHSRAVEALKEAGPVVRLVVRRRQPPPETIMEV
# T4: DLG3_3, Q92796
# T4 sequence (Q92796 374-475, limits assumed, looked up): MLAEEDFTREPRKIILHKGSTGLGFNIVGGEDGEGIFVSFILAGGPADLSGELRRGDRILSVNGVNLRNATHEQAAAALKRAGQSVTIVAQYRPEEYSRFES
# T5: GRIP1_2, Q9Y3R0
# T5 sequence (Q9Y3R0 145-248, limits assumed, looked up): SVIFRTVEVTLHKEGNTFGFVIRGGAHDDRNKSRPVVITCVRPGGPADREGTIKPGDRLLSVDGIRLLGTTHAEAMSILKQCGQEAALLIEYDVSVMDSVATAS
# T6: GRIP1_5, Q9Y3R0
# T6 sequence (Q9Y3R0 568-668, limits assumed, looked up): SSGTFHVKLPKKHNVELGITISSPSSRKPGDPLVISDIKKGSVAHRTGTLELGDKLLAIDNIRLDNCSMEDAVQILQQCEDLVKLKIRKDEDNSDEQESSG
# T7: GRIP1_7, Q9Y3R0
# T7 sequence (Q9Y3R0 999-1096, limits assumed, looked up): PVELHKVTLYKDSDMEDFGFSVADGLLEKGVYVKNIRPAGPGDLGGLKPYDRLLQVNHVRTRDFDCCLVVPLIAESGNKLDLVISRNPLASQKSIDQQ
# T8: LNX2_3, Q8N448
# T8 sequence (Q8N448 463-564, limits assumed, looked up): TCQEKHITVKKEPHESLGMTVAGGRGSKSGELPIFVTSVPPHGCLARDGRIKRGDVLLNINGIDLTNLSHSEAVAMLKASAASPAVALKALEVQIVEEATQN
# T9: MPDZ_12, O75970
# T9 sequence (O75970 1857-1958, limits assumed, looked up): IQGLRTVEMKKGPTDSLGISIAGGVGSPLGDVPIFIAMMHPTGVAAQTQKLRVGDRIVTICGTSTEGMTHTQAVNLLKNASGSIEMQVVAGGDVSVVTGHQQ
# T10: PARD3B_1, Q8TEW8
# T10 sequence (Q8TEW8 196-299, limits assumed, looked up): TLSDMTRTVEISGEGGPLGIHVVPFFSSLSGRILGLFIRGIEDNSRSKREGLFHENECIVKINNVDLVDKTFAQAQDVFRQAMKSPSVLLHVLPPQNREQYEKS
# T11: RHPN1, Q8TCX5
# T11 sequence (Q8TCX5 508-602, limits assumed, looked up): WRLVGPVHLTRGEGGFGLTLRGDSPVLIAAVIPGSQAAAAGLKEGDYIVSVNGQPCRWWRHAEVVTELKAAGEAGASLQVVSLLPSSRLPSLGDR
# T12: TJP3_3, O95049
# T12 sequence (O95049 375-456, limits assumed, looked up): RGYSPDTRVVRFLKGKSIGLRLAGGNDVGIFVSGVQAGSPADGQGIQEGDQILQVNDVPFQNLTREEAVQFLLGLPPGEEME
# How the values were obtained:
# Test in all cases: holdup assay
# Set-up in all cases: key: below the threshold = too weak to quantify, mostly under pKd 3.1 to 4
# ARHGAP21, Q5T5U3 = target: T1, ARHGAP21, Q5T5U3
# DFNB31_1, Q9P202 = target: T2, DFNB31_1, Q9P202
# DLG3_1, Q92796 = target: T3, DLG3_1, Q92796
# DLG3_3, Q92796 = target: T4, DLG3_3, Q92796
# DLG4_1, P78352 = target: DLG4_1, P78352
# FRMPD2_1, Q68DX3 = target: FRMPD2_1, Q68DX3
# GORASP2, Q9H8Y8 = target: GORASP2, Q9H8Y8
# GRID2IP_1, A4D2P6 = target: GRID2IP_1, A4D2P6
# GRID2IP_2, A4D2P6 = target: GRID2IP_2, A4D2P6
# GRIP1_2, Q9Y3R0 = target: T5, GRIP1_2, Q9Y3R0
# GRIP1_5, Q9Y3R0 = target: T6, GRIP1_5, Q9Y3R0
# GRIP1_7, Q9Y3R0 = target: T7, GRIP1_7, Q9Y3R0
# HTRA1, Q92743 = target: HTRA1, Q92743
# IL16_3, Q14005 = target: IL16_3, Q14005
# Inadl_5, Q8NI35 = target: Inadl_5, Q8NI35
# LDB3, O75112 = target: LDB3, O75112
# LIMK2, P53671 = target: LIMK2, P53671
# LNX2_3, Q8N448 = target: T8, LNX2_3, Q8N448
# MPDZ_12, O75970 = target: T9, MPDZ_12, O75970
# NHERF4_1, Q86UT5-2 = target: NHERF4_1, Q86UT5-2
# PARD3B_1, Q8TEW8 = target: T10, PARD3B_1, Q8TEW8
# PTPN3, P26045 = target: PTPN3, P26045
# RHPN1, Q8TCX5 = target: T11, RHPN1, Q8TCX5
# SNX27, Q96L92 = target: SNX27, Q96L92
# TJP3_3, O95049 = target: T12, TJP3_3, O95049
# [1] = plain residues with an end cap or a label only (N-terminal biotin on a linker: ahx)
# [2] = plain residues with an end cap or a label only (N-terminal biotin on a linker: ttds)
# [3] = plain residues with an end cap or a label only (N-terminal biotin on a linker: ado-ado)
# GRID2IP_2, A4D2P6, sequence (A4D2P6 272-370): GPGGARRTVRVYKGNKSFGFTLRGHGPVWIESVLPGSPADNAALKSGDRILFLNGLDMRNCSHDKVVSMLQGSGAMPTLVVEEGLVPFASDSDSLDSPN
# PTPN3, P26045, sequence (P26045 505-587): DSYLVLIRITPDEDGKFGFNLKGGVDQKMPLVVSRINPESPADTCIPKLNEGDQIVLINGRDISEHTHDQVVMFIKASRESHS
# LIMK2, P53671, sequence (P53671 143-248): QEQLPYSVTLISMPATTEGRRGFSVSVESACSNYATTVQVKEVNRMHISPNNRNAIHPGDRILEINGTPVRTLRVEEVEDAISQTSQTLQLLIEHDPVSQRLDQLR
# Inadl_5, Q8NI35, sequence (Q8NI35 673-780): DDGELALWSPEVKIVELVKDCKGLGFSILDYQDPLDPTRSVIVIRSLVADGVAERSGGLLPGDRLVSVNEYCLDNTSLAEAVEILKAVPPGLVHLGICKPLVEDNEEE
# NHERF4_1, Q86UT5-2, sequence (Q86UT5 other isoform, or with tags, fused parts or gaps): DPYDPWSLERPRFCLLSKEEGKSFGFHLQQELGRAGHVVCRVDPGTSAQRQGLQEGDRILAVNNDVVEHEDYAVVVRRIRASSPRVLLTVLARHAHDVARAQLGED
# DLG4_1, P78352, sequence (P78352 62-152): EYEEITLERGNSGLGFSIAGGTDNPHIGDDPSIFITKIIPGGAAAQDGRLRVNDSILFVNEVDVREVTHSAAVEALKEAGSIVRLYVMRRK
# LDB3, O75112, sequence (O75112 1-94): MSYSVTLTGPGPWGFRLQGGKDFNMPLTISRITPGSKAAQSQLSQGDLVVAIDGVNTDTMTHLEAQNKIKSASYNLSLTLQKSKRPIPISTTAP
# IL16_3, Q14005, sequence (Q14005 1107-1207): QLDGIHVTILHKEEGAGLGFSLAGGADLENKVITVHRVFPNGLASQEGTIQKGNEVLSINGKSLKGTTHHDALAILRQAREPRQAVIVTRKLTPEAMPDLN
# HTRA1, Q92743, sequence (Q92743 360-477): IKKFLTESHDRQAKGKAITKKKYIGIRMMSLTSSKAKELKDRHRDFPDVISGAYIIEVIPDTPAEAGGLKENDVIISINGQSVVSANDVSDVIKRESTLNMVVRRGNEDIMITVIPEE
# GRID2IP_1, A4D2P6, sequence (A4D2P6 1-87): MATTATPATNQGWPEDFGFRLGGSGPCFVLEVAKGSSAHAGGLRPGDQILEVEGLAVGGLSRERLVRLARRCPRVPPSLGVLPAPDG
# FRMPD2_1, Q68DX3, sequence (Q68DX3 770-861): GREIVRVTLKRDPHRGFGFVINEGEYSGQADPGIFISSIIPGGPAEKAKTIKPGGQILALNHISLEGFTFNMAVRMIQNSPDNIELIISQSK
binder,measurement,setting,value
"HSATSVHTSV [MTMR1, Q13613]",pKd,"ARHGAP21, Q5T5U3; [1]",3.49
same,pKd,"DFNB31_1, Q9P202; [1]",3.66
same,pKd,"DLG3_1, Q92796; [1]",3.9
same,pKd,"DLG3_3, Q92796; [1]",3.68
same,pKd,"DLG4_1, P78352; [1]",4.21
same,pKd,"FRMPD2_1, Q68DX3; [1]",below the threshold
same,pKd,"GORASP2, Q9H8Y8; [1]",below the threshold
same,pKd,"GRID2IP_1, A4D2P6; [1]",below the threshold
same,pKd,"GRID2IP_2, A4D2P6; [1]",below the threshold
same,pKd,"GRIP1_2, Q9Y3R0; [1]",below the threshold
same,pKd,"GRIP1_5, Q9Y3R0; [1]",below the threshold
same,pKd,"GRIP1_7, Q9Y3R0; [1]",below the threshold
same,pKd,"HTRA1, Q92743; [1]",3.51
same,pKd,"IL16_3, Q14005; [1]",below the threshold
same,pKd,"Inadl_5, Q8NI35; [1]",below the threshold
same,pKd,"LDB3, O75112; [1]",below the threshold
same,pKd,"LIMK2, P53671; [1]",below the threshold
same,pKd,"LNX2_3, Q8N448; [1]",below the threshold
same,pKd,"MPDZ_12, O75970; [1]",below the threshold
same,pKd,"NHERF4_1, Q86UT5-2; [1]",below the threshold
same,pKd,"PARD3B_1, Q8TEW8; [1]",below the threshold
same,pKd,"PTPN3, P26045; [1]",4.16
same,pKd,"RHPN1, Q8TCX5; [1]",4.09
same,pKd,"SNX27, Q96L92; [1]",3.96
same,pKd,"TJP3_3, O95049; [1]",below the threshold
"DLDEEEDTHL [PODXL, O00592]",pKd,"ARHGAP21, Q5T5U3; [2]",3.56
same,pKd,"DFNB31_1, Q9P202; [2]",below the threshold
same,pKd,"DLG3_1, Q92796; [2]",below the threshold
same,pKd,"DLG3_3, Q92796; [2]",below the threshold
same,pKd,"DLG4_1, P78352; [2]",below the threshold
same,pKd,"FRMPD2_1, Q68DX3; [2]",below the threshold
same,pKd,"GORASP2, Q9H8Y8; [2]",3.48
same,pKd,"GRID2IP_1, A4D2P6; [2]",below the threshold
same,pKd,"GRID2IP_2, A4D2P6; [2]",below the threshold
same,pKd,"GRIP1_2, Q9Y3R0; [2]",3.63
same,pKd,"GRIP1_5, Q9Y3R0; [2]",below the threshold
same,pKd,"GRIP1_7, Q9Y3R0; [2]",below the threshold
same,pKd,"HTRA1, Q92743; [2]",3.73
same,pKd,"IL16_3, Q14005; [2]",below the threshold
same,pKd,"Inadl_5, Q8NI35; [2]",below the threshold
same,pKd,"LDB3, O75112; [2]",3.49
same,pKd,"LIMK2, P53671; [2]",below the threshold
same,pKd,"LNX2_3, Q8N448; [2]",below the threshold
same,pKd,"MPDZ_12, O75970; [2]",below the threshold
same,pKd,"NHERF4_1, Q86UT5-2; [2]",below the threshold
same,pKd,"PARD3B_1, Q8TEW8; [2]",below the threshold
same,pKd,"PTPN3, P26045; [2]",3.85
same,pKd,"RHPN1, Q8TCX5; [2]",4.1
same,pKd,"SNX27, Q96L92; [2]",5.15
same,pKd,"TJP3_3, O95049; [2]",3.5
"IGHEDLETAV [DGKI, O75912]",pKd,"ARHGAP21, Q5T5U3; [3]",below the threshold
same,pKd,"DFNB31_1, Q9P202; [3]",4.79
same,pKd,"DLG3_1, Q92796; [3]",4.09
same,pKd,"DLG3_3, Q92796; [3]",4.02
same,pKd,"DLG4_1, P78352; [3]",4.61
same,pKd,"FRMPD2_1, Q68DX3; [3]",below the threshold
same,pKd,"GORASP2, Q9H8Y8; [3]",below the threshold
same,pKd,"GRID2IP_1, A4D2P6; [3]",below the threshold
same,pKd,"GRID2IP_2, A4D2P6; [3]",3.79
same,pKd,"GRIP1_2, Q9Y3R0; [3]",below the threshold
same,pKd,"GRIP1_5, Q9Y3R0; [3]",below the threshold
same,pKd,"GRIP1_7, Q9Y3R0; [3]",below the threshold
same,pKd,"HTRA1, Q92743; [3]",3.65
same,pKd,"IL16_3, Q14005; [3]",below the threshold
same,pKd,"Inadl_5, Q8NI35; [3]",below the threshold
same,pKd,"LDB3, O75112; [3]",below the threshold
same,pKd,"LIMK2, P53671; [3]",below the threshold
same,pKd,"LNX2_3, Q8N448; [3]",below the threshold
same,pKd,"MPDZ_12, O75970; [3]",below the threshold
same,pKd,"NHERF4_1, Q86UT5-2; [3]",below the threshold
same,pKd,"PARD3B_1, Q8TEW8; [3]",below the threshold
same,pKd,"PTPN3, P26045; [3]",5.02
same,pKd,"RHPN1, Q8TCX5; [3]",4.77
same,pKd,"SNX27, Q96L92; [3]",5.73
same,pKd,"TJP3_3, O95049; [3]",below the threshold
